Assay results as given in US20250282887A1 (Amgen, published 2025).

T1: Human MAGEB2 (Melanoma-associated antigen B2) (human, UniProt O15479 1-319)
T1 construct: Intracellular antigen detected by IHC in FFPE material: CHO cells transfected with human MAGEB2 (mCherry vector with Myc/DDK tags, or ORF without tags)
T1 sequence: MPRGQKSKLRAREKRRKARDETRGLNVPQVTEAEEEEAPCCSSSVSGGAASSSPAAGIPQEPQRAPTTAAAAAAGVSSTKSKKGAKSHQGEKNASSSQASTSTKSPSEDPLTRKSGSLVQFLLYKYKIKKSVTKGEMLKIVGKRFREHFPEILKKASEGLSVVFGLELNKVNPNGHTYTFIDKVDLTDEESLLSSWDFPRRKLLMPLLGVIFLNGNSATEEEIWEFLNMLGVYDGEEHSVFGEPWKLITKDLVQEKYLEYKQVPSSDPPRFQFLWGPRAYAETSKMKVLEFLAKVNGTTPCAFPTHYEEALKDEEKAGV

T2: human MAGEB6 (human, UniProt Q8N7X4 1-407)
T2 construct: whole, on cells; FFPE cell pellets
T2 sequence (looked up): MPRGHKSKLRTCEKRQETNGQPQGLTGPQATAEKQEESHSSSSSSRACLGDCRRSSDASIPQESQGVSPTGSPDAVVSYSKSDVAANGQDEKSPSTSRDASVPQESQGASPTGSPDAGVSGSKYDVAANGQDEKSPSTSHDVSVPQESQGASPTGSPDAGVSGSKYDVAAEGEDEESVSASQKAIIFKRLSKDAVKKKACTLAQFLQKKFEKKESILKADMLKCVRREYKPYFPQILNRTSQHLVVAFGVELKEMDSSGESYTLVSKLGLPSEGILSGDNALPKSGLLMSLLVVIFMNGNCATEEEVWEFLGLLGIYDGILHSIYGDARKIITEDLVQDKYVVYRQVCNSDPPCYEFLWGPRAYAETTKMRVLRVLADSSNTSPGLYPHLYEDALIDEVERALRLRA


Assays:
[1] = target: T1, Human MAGEB2 (Melanoma-associated …); assay: IHC on FFPE NCI-H1703 cells (endogenous MAGEB2)
Method: (§1) FFPE samples were sectioned at 4 μm and mounted on positive charged glass slides. After mounting, paraffin sections were air-dried at room temperature. FFPE TMA samples were received as freshly sectioned and mounted on glass slides. The fully automated IHC assay was performed on a Discovery Ultra Stainer (Ventana Medical Systems, Tucson, AZ) using Ventana Anti-Rabbit HQ (cat #760-4815), Ventana Anti-HQ HRP (cat #760-4820), and Ventana Antibody Diluent with Casein (cat #760-219) (Ventana Medical Systems, Tucson, AZ). The slides were baked on the Discovery Ultra Stainer at 60° C. for 8 minutes, de-paraffinized with Ventana Discovery wash (cat #950-510) for 3 cycles (8 minutes each) at 69° C., and underwent cell conditioning (target retrieval) at 95° C. for 16 minutes (for cell arrays) or 32 minutes (tissues or TMAs) in CC1 buffer (cat #950-500). Following this, slides were incubated with Background Sniper (cat #BS966M, Biocare Medical, Pacheco, CA) in a Ventana Option Prep kit (cat #771-751) for 28 minutes, incubated with CM inhibitor (a part of the Ventana DAB kit cat #760-159) for 12 minutes, and incubated for 1 h at RT with MAGE-B2 antibody diluted with Ventana diluent with Casein in a Ventana Prep kit (cat #770-001) (working concentration at 0.1 μg/ml for cell pellet, or 1-5 ug/ml for tissues) or with a matched concentration of isotype control Rabbit IgG1 antibody. Following this, slides were incubated with the Ventana Anti-Rabbit HQ (cat #760-4815) for 28 minutes at RT, Ventana Anti-HQ HRP (cat #760-4820) for 28 minutes at RT, and signals detected with Ventana DAB chromogen kit (cat #760-159) for 5 minutes at RT. Slides were counterstained with Ventana Hematoxylin II (cat #5266726001) for 8 minutes and Ventana Bluing reagent (cat #526676900) for 4 minutes. Slides were coverslipped and digitized using an Aperio AT2 scanner (Leica Biosystems Inc, Buffalo Grove, IL).

[2] = target: T1, Human MAGEB2 (Melanoma-associated …); assay: IHC on FFPE CFPAC-1 cells (endogenous MAGEB2)
Method: as §1

[3] = target: T1, Human MAGEB2 (Melanoma-associated …); assay: IHC on FFPE NCI-H1395 cells (endogenous MAGEB2)
Method: as §1

human MAGEB6 = target: T2, human MAGEB6; assay: IHC, FFPE CHO cells transfected with human MAGEB6
Method: as §1

Row | IHC % Frequency [1] | IHC % Frequency [2] | IHC % Frequency [3] | IHC Intensity [3] | binding result (human MAGEB6) | IHC Intensity [1] | Binder
1 | 0% | 0% | 0% | 0 | no binding (tested: 0.1 µg/ml) | – | 1C3 (antibody, V domains shown, also called MAGE-B2 (IC3); anti-MAGEB2 antibody 1C3) VH: QSLEESGGGLVQPEGSLTLTCTAFGVTLTNYYICWVRQAPGKGLEWVGCIDNANGRTYYASWAKGRFTISKTSSTTGTLQMTSLTAADTATYFCARSLATPLWGPGTLVTVSS VL: DIVMTQTPSSVEAAVGGTVTIKCQASQNISSYLAWYQQKPGQPPKLLIYRASTLASGVPSRFKGSGSGTQFTLTISDLECADAATYYCQSYDDSRSSNFFYAFGGGTEVVVKG
2 | 0% | 0% | 0% | 0 | no binding (tested: 0.1 µg/ml) | 0 | 4G17 (antibody, IgG1, V domains shown, Rabbit monoclonal IgG1; Tested as supernatant and as small batch purified antibody; also called MAGE-B2 (4G17); anti-MAGEB2 antibody 4G17) VH: QSLEESGGGLVQPEGSLTLTCTASGVTLSNYYICWVRQAPGKGLEWIGCIDNVNGRTYYASWAKGRFTISKTSSTTGTLQMTSLTAADTATYFCARSLATPLWGPGTLVTVSS VL: DIVMTQTPASVEAAVGGTVTIKCQASQNIDSYLAWYQQKPGQPPKLLIYRASTLASGVPSRFKGSGSGTEFTLTISDLECADAATYYCQSYDDSRSSSFFYGFGGGTEVVVK
3 | 0% | 0% | 0% | 0 | no binding (tested: 0.1 µg/ml) | – | 1J15 (antibody, IgG1, V domains shown, Rabbit monoclonal IgG1; Tested as supernatant and as small batch purified antibody; also called MAGE-B2 (IJ15); anti-MAGEB2 antibody 1J15) VH: QSLEESGGGLVQPEGSLTLTCTAFGFTLNNYYICWVRQAPGKGLEWIACIDNANGRTYYASWAKGRFTISKTSSTTVTLQMTSLTAADTATYFCARSLSTPLWGPGTLVTVSS VL: DIVMTQTPASVEAAVGGTVTIKCQASQSISSYLSWYQQKPGQPPKLLIYRASTLASGVPSRFRGSGSGTQFTLTISDLECADAATYYCQSYDDSSDNNFFYGFGGGTEVVVR
4 | 0% | 0% | 0% | 0 | no binding (tested: 0.1 µg/ml) | – | 1I14 (antibody, V domains shown, also called MAGE-B2 (1i14)) VH: QSVEESGGRLVTPGTPLTLTCTISGFSLSSYAMSWVRQAPGKGLEWIGSIGGGGSAVYASWAKGRFTISKTSTTVDLRITSPTTEDTAMYFCGRGFYSIDLWGPGTLVTVSS VL: DVVMTQTPASVEATVGGTVTIKCQSSQSVYDNNALAWYQQNAGQRPRLLIYGASTLASGVPSRFSASGSGTEFTLTISDLECADAATYYCQCTYYVSSYQNDFGGGTEVVVKG
